Columns and labels:
[1] = target: T1, KIR3DL2 recombinant protein (R&D Systems) (human, UniProt P43630 28-340); test: SCK kinetic method
T1 construct: Bought protein; also called rec KIR3DL2; recombinant KIR3DL2-Fc fusion protein; not shown: Fc part of the bought fusion protein; not described

[2] = target: T2, KIR2DS1 on transfected BWZ cells (UniProt Q14954 22-304, limits assumed); test: flow cytometry on transfected BWZ cells
T2 construct: whole, on cells; also called BWZ-KIR2DS1

[3] = target: T3, KIR2DS2 on transfected BWZ cells (UniProt P43631 22-304, limits assumed); test: flow cytometry on transfected BWZ cells
T3 construct: whole, on cells

[4] = target: T4, KIR2DL3 on transfected BWZ cells (UniProt P43628 22-341, limits assumed); test: flow cytometry on transfected BWZ cells
T4 construct: whole, on cells

[5] = target: T5, KIR2DL1 on transfected BWZ cells (UniProt P43626 22-348, limits assumed); test: flow cytometry on transfected BWZ cells
T5 construct: whole, on cells

[6] = target: T6, KIR2DS4 on transfected BWZ cells (UniProt P43632 22-304, limits assumed); test: flow cytometry on transfected BWZ cells
T6 construct: whole, on cells

[7] = target: T7, KIR3DL1 expressed on cells (human, UniProt P43629 22-444); test: flow cytometry on HEK KIR3DL1 cells (row HEK-KIR3DL1)
T7 construct: also called HEK-293T/KIR3DL1

[8] = target: T1, KIR3DL2 recombinant protein (R&D …); test: SPR (Biacore T100), antibody injected over immobilised recombinant KIR3DL2, bivalent affinity, pH 7.2
[9] = target: T8, KIR3DL2 mutant M7 (L113V;T118R) (human, UniProt P43630 22-455); test: flow cytometry on HEK-293T cells transfected with the mutant; + no significant loss of binding, ± decrease
T8 construct: Expressed on transfected HEK-293T cells; also called Number 7

[10] = target: T9, KIR3DL2 mutant M9 (L164M;P166L;V167A) (human, UniProt P43630 22-455); test: as above
T9 construct: Expressed on transfected HEK-293T cells; also called Number 9

[11] = target: T10, KIR3DL2 mutant M10 (R136K;E141K) (human, UniProt P43630 22-455); test: as above
T10 construct: Expressed on transfected HEK-293T cells; also called Number 10

[12] = target: T11, KIR3DL2 mutant M11 (P179T;S181T) (human, UniProt P43630 22-455); test: as above
T11 construct: Expressed on transfected HEK-293T cells; also called Number 11; mutant 11

[13] = target: T12, KIR3DL2 mutant M11A1 (V178A;H180S) (human, UniProt P43630 22-455); test: as above
T12 construct: Expressed on transfected HEK-293T cells; also called Number 24 (11A1); mutant 11A1

[14] = target: T13, KIR3DL2 mutant M11A3 (N99S;H100S;Q184A) (human, UniProt P43630 22-455); test: as above
T13 construct: Expressed on transfected HEK-293T cells; also called Number 26 (11A3)

[15] = target: T14, KIR3DL2 mutant M11A5 (V147A;Q149S) (human, UniProt P43630 22-455); test: as above
T14 construct: Expressed on transfected HEK-293T cells; also called Number 28 (11A5)

[16] = target: T15, KIR3DL2 mutant M8 + 11 (V127I;P179T;S181T) (human, UniProt P43630 22-455); test: as above
T15 construct: Expressed on transfected HEK-293T cells; also called Number 23 (8 + 11)

[17] = target: T16, KIR3DL2 mutant M11A4 (E130S;H131S;R145S) (human, UniProt P43630 22-455); test: flow cytometry on HEK-293T cells transfected with the mutant; - means substantially complete loss of binding
T16 construct: Expressed on transfected HEK-293T cells; also called Number 27 (11A4)

[18] = target: T17, KIR3DL2 mutant M11A6 (I150A;M128A) (human, UniProt P43630 22-455); test: as above
T17 construct: Expressed on transfected HEK-293T cells; also called Number 29 (11A6)

[19] = target: T18, KIR3DL2 at the surface of HUT78 Sezary Syndrome cell line (human, UniProt P43630 22-455); test: flow cytometry competition on HUT78 cells; naked antibody titrated against 15C11-PE (5 µg/ml)
T18 construct: whole, on cells; Two alleles are expressed

[20] = target: T19, NK cells, including normal KIR3DL2+ NK cells (Homo sapiens, UniProt P43630); test: flow cytometry of whole blood of a Sezary Syndrome patient, antibody + GaM-PE against CD4; lower gate (CD4-negative NK cells)
T19 construct: full-length receptor on the cell surface; also called gate NK GaM PE+; KIR3DL2 on CD4-negative NK cells in the blood of the Sezary Syndrome patient

[21] = target: T20, KIR3DL2 on fresh Sezary Syndrome cells of patients (human, UniProt P43630 22-455); test: flow cytometry of whole blood of a Sezary Syndrome patient, antibody + GaM-PE against CD4; upper gate (CD4+ KIR3DL2+ leukemic Sezary cells)
T20 construct: whole, on cells; also called SS cells
T20 sequence (P43630 22-455): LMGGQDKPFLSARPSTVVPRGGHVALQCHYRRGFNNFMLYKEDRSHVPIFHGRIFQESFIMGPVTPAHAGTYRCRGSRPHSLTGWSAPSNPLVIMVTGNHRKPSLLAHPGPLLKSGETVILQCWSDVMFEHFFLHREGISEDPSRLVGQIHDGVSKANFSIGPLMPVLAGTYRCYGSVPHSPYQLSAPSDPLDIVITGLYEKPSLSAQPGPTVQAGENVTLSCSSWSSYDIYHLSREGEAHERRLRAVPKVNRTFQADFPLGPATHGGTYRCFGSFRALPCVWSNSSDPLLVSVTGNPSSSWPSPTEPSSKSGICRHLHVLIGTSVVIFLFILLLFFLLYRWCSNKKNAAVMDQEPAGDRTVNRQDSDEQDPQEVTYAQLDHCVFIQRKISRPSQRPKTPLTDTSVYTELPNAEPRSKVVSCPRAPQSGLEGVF

T1 sequence (P43630 28-340 A108T): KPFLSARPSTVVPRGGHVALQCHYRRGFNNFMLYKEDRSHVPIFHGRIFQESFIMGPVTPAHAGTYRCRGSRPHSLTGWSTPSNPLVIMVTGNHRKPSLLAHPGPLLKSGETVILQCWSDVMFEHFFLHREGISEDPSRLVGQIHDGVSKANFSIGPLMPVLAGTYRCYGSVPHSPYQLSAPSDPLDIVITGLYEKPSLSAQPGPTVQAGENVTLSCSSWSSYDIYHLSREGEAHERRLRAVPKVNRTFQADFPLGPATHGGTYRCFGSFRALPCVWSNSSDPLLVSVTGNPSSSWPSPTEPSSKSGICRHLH
T17 sequence (P43630 22-455 M149A/I171A): as the sequence (P43630 22-455) above, with M128A, I150A counted along it
T12 sequence (P43630 22-455 V199A/H201S): as the sequence (P43630 22-455) above, with V178A, H180S counted along it
T16 sequence (P43630 22-455 E151S/H152S/R166S): as the sequence (P43630 22-455) above, with E130S, H131S, R145S counted along it
T2 sequence (Q14954 22-304 limits assumed): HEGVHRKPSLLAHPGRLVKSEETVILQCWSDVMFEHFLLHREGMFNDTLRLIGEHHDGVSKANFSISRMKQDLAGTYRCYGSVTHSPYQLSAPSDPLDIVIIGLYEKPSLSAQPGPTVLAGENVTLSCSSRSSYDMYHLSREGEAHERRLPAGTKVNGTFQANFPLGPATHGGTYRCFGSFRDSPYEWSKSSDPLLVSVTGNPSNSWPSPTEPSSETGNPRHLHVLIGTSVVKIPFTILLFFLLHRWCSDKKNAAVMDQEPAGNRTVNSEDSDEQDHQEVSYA
T14 sequence (P43630 22-455 V168A/Q170S): as the sequence (P43630 22-455) above, with V147A, Q149S counted along it
T7 sequence (P43629 22-444 limits assumed): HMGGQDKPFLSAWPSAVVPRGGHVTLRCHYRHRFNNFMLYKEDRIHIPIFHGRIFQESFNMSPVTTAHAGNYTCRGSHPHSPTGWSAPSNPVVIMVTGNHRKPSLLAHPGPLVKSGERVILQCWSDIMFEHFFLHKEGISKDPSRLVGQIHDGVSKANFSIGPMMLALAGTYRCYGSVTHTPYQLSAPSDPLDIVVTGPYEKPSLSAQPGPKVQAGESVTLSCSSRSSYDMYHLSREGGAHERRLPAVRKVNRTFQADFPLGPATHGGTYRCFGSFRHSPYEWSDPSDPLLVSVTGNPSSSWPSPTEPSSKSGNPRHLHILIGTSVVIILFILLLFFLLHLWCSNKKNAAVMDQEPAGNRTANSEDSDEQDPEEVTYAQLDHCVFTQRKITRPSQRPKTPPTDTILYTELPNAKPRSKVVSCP
T11 sequence (P43630 22-455 P200T/S202T): as the sequence (P43630 22-455) above, with P179T, S181T counted along it
T9 sequence (P43630 22-455 L185M/P187L/V188A): as the sequence (P43630 22-455) above, with L164M, P166L, V167A counted along it
T3 sequence (P43631 22-304 limits assumed): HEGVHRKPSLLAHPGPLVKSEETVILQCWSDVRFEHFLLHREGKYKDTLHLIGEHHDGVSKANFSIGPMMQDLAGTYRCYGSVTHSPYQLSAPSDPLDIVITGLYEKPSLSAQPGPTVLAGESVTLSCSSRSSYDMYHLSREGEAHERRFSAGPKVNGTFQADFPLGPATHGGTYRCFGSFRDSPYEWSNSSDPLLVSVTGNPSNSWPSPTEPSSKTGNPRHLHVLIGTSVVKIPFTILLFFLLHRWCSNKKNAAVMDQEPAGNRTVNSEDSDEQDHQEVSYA
T6 sequence (P43632 22-304 limits assumed): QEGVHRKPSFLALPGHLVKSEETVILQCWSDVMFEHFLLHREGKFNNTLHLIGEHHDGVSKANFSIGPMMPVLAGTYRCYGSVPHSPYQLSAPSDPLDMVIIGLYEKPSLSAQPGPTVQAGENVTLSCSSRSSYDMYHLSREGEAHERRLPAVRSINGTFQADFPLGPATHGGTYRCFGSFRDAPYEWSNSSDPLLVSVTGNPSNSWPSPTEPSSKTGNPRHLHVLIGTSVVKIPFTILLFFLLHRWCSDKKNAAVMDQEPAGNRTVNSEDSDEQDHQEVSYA
T19 sequence (P43630 22-455 limits assumed): as the sequence (P43630 22-455) above
T18 sequence (P43630 22-455): as above
T8 sequence (P43630 22-455 L134V/T139R): as the sequence (P43630 22-455) above, with L113V, T118R counted along it
T10 sequence (P43630 22-455 R157K/E162K): as the sequence (P43630 22-455) above, with R136K, E141K counted along it
T4 sequence (P43628 22-341 limits assumed): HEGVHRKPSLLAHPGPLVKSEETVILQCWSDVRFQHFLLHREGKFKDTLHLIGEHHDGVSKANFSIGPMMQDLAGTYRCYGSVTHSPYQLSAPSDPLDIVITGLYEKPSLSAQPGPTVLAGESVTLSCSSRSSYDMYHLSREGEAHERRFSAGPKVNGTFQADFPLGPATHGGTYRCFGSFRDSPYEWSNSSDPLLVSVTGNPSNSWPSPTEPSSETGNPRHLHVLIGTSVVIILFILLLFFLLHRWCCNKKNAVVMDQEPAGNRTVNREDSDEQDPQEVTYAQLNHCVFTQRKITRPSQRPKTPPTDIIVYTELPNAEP
T5 sequence (P43626 22-348 limits assumed): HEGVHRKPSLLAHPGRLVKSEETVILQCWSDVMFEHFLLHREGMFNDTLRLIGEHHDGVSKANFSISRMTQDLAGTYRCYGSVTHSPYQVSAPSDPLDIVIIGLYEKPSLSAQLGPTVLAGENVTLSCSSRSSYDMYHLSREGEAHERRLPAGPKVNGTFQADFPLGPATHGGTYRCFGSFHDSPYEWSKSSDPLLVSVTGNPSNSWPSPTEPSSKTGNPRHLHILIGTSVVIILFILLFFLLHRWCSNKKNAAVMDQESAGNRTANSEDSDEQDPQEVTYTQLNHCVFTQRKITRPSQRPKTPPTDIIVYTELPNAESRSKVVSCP
T15 sequence (P43630 22-455 V148I/P200T/S202T): as the sequence (P43630 22-455) above, with V127I, P179T, S181T counted along it
T13 sequence (P43630 22-455 N120S/H121S/Q205A): as the sequence (P43630 22-455) above, with N99S, H100S, Q184A counted along it

B1: antibody 15C11 (antibody, mouse IgG2a, V domains shown)
VH: EVKLEESGGGLVQPGGSMKLSCAASGFTFSDAWMDWVRQSPEKGLEWVAEIRSKANNHATYYAESVKGRFTISRDDSKSSVYLRMNSLRAEDTGIYYCTGGYYPVYWGQGTLVTVSA
VL: DIQMTQSPSSLSASLGGKVTITCKASQDINKNIAWYQHKPGKGPRLLIHYTSTLQPGFPSRFSGSGSGRDYSFSISNLEPEDLATYYCLQYDNLLTFGGGTKLEIK
notes: also called M-K32-15C11; 15C11-PE (PE-labelled form)
B1 was tested, and the Kd [1] was 0.37 nM, the koff [1] was 0.00011 s⁻¹ and the binding result [2] was “no binding (tested: 10 µg/ml)”. B1: no binding (tested: 10 µg/ml) [3]; no binding (tested: 10 µg/ml) [4]; no binding (tested: 10 µg/ml) [5]. For the same binder, the binding result [6] was “no binding (tested: 10 µg/ml)”, the binding result [7] was “no binding” and the Kd [8] was 0.78 nM. B1: binds [9]; binds [10]; binds [11]. B1: binds [12]; binds [13]; binds [14]. B1: binds [15]; binds [16]; no binding [17]. For the same binder, the binding result [18] was “no binding”, the “IC50 (read off the curve)” value [19] was roughly 0.4 µg/mL and the “% of cells in gate NK GaM PE+” value [20] was 12.7%. The “% of cells in gate CD4 GaM PE+” value [21] was 7.6%.

Source: patent US20150291692A1 (INNATE PHARMA, published 2015)
